From paper PMC8171064 come the findings set out here.

The target of the experiment is Saccharomyces cerevisiae Rsm22 protein, C-terminally His6-tagged (construct MA-S17–K628-HHHHHH) (S. cerevisiae) (UniProt P36056). Kind of experiment: SEC-MALS; pooled and concentrated first SEC peak (higher oligomeric form); Superdex 200 10/300 GL; 40 mM Tris pH 7.5, 500 mM NaCl, 5% glycerol.

The stoichiometry N is a count of units in the complex or per binding partner.

With “Saccharomyces cerevisiae Rsm22 protein, C-terminally His6-tagged (construct MA-S17–K628-HHHHHH) (from UniProt P36056 17-628) (enzyme)”, the stoichiometry N was 2.
